The target of assay [1] is T1, human FcγRIIb receptor protein (R&D Systems) (human, UniProt P31994 46-217).
T1 construct: Bought protein injected over captured antibody in Biacore; also called CD32b
T1 sequence (looked up): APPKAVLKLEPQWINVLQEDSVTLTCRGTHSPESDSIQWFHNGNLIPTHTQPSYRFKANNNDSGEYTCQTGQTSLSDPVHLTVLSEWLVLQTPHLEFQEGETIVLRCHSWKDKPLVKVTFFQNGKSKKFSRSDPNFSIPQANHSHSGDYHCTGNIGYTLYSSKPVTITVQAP
The experiment in a line: SPR. (In general: In SPR one partner is held on a chip, and binding of the other changes the refractive index at the surface.)

Assay [2] has as its target T2, human FcγRIIa (131R), His- and GST-tagged (human, UniProt P12318 34-217).
T2 construct: Expressed in HEK293T cells, purified by nickel chromatography; also called R131 FcγRIIa; not shown: 6xHis and GST tags of the pTT5 vector
T2 sequence (looked up): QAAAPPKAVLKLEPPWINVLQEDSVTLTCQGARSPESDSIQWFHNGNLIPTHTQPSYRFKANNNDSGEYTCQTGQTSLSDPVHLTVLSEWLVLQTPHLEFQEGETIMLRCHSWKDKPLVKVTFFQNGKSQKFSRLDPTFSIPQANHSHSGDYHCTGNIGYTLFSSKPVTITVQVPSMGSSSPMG
The experiment in a line: SPR.

The target in assay [3] is T3, cynoFcγRIIb (Macaca fascicularis, UniProt A0A140HDP4).
T3 construct: extracellular region, C-terminal His- and GST-tag; also called cynomolgus monkey FcγRIIb
T3 sequence (receptor extracellular region): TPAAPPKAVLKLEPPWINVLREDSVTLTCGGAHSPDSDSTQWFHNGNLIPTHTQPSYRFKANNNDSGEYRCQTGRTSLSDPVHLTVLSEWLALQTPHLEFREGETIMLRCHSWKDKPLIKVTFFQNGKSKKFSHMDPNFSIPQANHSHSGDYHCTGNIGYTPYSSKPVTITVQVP
Briefly: SPR.

Assay [4] concerns the target T4, mFcγRIIb (Mus musculus, UniProt P08101).
T4 construct: extracellular region, C-terminal His- and GST-tag; also called mouse FcγRII
T4 sequence (receptor extracellular region, looked up): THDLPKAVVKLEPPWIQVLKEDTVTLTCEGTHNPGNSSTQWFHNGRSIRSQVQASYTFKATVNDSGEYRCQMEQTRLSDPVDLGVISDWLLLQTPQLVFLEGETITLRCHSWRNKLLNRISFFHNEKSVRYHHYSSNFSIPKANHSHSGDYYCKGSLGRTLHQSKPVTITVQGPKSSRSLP
Briefly: SPR, off-rate. The procedure: (§1) Variants were screened for receptor affinity using Biacore™ technology, also referred to as Biacore herein, a surface plasmon resonance (SPR) based technology for studying biomolecular interactions in real time. SPR measurements were performed using a Biacore 3000 instrument (Biacore, Piscataway, N.J.). A protein A/G (Pierce Biotechnology) CM5 biosensor chip (Biacore) was generated using a standard primary amine coupling protocol. All measurements were performed using HBS-EP buffer (10 mM HEPES pH 7.4, 0.15 M NaCl, 3 mM EDTA, 0.005% vol/vol surfactant P20, Biacore). Antibodies at 20 nM or 50 nM in HBS-EP buffer were immobilized on the protein A/G surface and FcγRs were injected. After each cycle, the surface was regenerated by injecting glycine buffer (10 mM, pH 1.5). Data were processed by zeroing time and response before the injection of FcγR and by subtracting appropriate nonspecific signals (response of reference channel and injection of running buffer). Kinetic analyses were performed by global fitting of binding data with a 1:1 Langmuir binding model using BIAevaluation software (Biacore).
(§2) Variant antibodies were tested for their affinity to mouse or cynologous monkey FcγRs using Biacore SPR as described above. Specifically, antibodies were first immobilized on a protein A/G chip to high density, and then followed by injections of the extracellular domain of the mouse or cynologous monkey FcγR of interest. Both association and dissociation phases were tracked in real time using the Biacore technology.

Assay [5] addresses T5, mFcγRIV.
T5 construct: also called mouse FcγRIV; not shown: C-terminal His and GST tags (named only on our card)
T5 chain: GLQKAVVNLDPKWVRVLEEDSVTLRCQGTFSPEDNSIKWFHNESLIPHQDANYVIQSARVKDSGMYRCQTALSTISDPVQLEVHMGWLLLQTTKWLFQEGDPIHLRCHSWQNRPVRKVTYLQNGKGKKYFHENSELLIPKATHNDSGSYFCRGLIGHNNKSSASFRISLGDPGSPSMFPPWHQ
Briefly: SPR, off-rate. Here is the method: as §1, §2

The target in assay [6] is T6, cynoFcγRIIIa (Macaca fascicularis, UniProt Q8SPW2).
T6 construct: extracellular region, C-terminal His- and GST-tag; also called cynomolgus monkey FcγRIIIa
T6 sequence (Q8SPW2 17-208): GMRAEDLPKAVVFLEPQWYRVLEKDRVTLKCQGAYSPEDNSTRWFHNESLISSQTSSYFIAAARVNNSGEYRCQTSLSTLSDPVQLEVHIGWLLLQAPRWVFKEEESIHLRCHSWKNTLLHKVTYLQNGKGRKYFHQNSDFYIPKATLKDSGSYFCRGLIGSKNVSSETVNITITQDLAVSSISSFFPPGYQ
Briefly: SPR, off-rate. The procedure:
as §1, §2

Assay [7] has as its target T5, mFcγRIV. Briefly: SPR.
Assay [8] concerns the target T3, cynoFcγRIIb. Briefly: SPR, off-rate. The procedure: as §1, §2
The target of assay [9] is T4, mFcγRIIb. Briefly: SPR.
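For Fold vs WT IgG1 (off-rate) in this document: fold improvement over WT IgG1 so higher means slower dissociation than WT.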

B1: G236V (antibody, human IgG1, kappa)
heavy: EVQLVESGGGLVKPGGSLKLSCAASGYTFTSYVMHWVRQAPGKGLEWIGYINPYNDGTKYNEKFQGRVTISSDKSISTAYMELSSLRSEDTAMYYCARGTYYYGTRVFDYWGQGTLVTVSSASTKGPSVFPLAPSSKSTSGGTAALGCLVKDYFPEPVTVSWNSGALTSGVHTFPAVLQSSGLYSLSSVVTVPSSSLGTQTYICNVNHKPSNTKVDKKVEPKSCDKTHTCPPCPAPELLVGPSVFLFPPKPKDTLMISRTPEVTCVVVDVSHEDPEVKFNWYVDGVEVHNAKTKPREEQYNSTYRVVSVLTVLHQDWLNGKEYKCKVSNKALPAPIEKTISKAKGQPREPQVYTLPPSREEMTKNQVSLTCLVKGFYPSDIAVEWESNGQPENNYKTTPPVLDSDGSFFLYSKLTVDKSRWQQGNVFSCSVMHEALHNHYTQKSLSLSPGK
light: DIVMTQSPATLSLSPGERATLSCRSSKSLQNVNGNTYLYWFQQKPGQSPQLLIYRMSNLNSGVPDRFSGSGSGTEFTLTISSLEPEDFAVYYCMQHLEYPITFGAGTKLEIKRTVAAPSVFIFPPSDEQLKSGTASVVCLLNNFYPREAKVQWKVDNALQSGNSQESVTEQDSKDSTYSLSSTLTLSKADYEKHKVYACEVTHQGLSSPVTKSFNRGEC
notes: HuAM4G7 anti-CD19 IgG1 (m1) with this Fc substitution, EU index; copies: 2 + 2
By Kd is commonly meant the equilibrium constant for the complex coming apart. A higher Kd goes with lower affinity. On to B1, for which the results for the “Fold vs WT IgG1” value in [1] and in assay [2] were 0.0147 fold and 0.106 fold, respectively. Besides, the results for the Kd in assay [1] and in assay [2] were 100 µM and 8.08 µM, respectively. Besides, the “Fold vs WT IgG1 (off-rate)” value in assay [3] came to 0.703 fold. For the same molecule, the binding result in assay [4], in [5] and in [6] was “no binding” throughout.

B2: S267E/N325L (antibody, human IgG1, kappa)
heavy: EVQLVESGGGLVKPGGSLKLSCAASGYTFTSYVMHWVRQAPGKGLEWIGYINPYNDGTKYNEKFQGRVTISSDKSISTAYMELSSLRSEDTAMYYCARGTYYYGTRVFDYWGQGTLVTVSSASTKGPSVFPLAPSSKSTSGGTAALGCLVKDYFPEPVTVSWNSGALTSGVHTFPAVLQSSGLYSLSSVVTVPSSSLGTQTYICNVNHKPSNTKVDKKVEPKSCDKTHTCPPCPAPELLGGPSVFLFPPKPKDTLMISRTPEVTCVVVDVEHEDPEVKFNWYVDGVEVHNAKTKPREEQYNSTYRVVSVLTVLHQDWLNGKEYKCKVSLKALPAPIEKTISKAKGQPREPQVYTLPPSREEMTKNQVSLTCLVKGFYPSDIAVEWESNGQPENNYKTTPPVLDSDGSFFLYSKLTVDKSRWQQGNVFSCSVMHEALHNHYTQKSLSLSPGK
light: DIVMTQSPATLSLSPGERATLSCRSSKSLQNVNGNTYLYWFQQKPGQSPQLLIYRMSNLNSGVPDRFSGSGSGTEFTLTISSLEPEDFAVYYCMQHLEYPITFGAGTKLEIKRTVAAPSVFIFPPSDEQLKSGTASVVCLLNNFYPREAKVQWKVDNALQSGNSQESVTEQDSKDSTYSLSSTLTLSKADYEKHKVYACEVTHQGLSSPVTKSFNRGEC
notes: HuAM4G7 anti-CD19 IgG1 (m1) with these Fc substitutions, EU index; copies: 2 + 2
For the molecule B2, the entries for the “Fold vs WT IgG1” value in assay [1] and in assay [2] were 31.5 fold and 41.5 fold, respectively. Besides, the Kd in assay [1] worked out at 0.0466 µM; in [2] it was 0.0207 µM. Further, the “Fold vs WT IgG1 (off-rate)” value in assay [7] came out at 0.24 fold. Besides, the binding result in assay [4], in [8] and in assay [6] was “no binding” throughout.

B3: L235R (antibody, human IgG1, kappa)
heavy: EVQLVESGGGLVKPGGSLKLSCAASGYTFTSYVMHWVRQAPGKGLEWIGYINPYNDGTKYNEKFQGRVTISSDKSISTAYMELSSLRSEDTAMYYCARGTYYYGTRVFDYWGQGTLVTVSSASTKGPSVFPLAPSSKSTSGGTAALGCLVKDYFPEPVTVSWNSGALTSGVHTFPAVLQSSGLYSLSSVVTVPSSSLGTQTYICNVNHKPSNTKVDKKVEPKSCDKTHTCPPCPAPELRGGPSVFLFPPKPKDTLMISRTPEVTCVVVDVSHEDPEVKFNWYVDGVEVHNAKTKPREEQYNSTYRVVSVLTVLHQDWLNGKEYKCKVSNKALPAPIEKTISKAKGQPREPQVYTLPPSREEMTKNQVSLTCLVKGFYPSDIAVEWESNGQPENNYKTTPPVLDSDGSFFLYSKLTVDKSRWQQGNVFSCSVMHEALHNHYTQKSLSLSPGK
light: DIVMTQSPATLSLSPGERATLSCRSSKSLQNVNGNTYLYWFQQKPGQSPQLLIYRMSNLNSGVPDRFSGSGSGTEFTLTISSLEPEDFAVYYCMQHLEYPITFGAGTKLEIKRTVAAPSVFIFPPSDEQLKSGTASVVCLLNNFYPREAKVQWKVDNALQSGNSQESVTEQDSKDSTYSLSSTLTLSKADYEKHKVYACEVTHQGLSSPVTKSFNRGEC
notes: as for B1
For B3, the “Fold vs WT IgG1” value was 5.58 fold in [1] and 1.02 fold in [2]. The Kd in [1] amounted to 0.263 µM; in [2], 0.838 µM. In addition, in assay [7], the “Fold vs WT IgG1 (off-rate)” value is 0.347 fold. The binding result in assay [4], in assay [8] and in assay [6] was “no binding” throughout.

B4: S267E/L328H (antibody, human IgG1, kappa)
heavy: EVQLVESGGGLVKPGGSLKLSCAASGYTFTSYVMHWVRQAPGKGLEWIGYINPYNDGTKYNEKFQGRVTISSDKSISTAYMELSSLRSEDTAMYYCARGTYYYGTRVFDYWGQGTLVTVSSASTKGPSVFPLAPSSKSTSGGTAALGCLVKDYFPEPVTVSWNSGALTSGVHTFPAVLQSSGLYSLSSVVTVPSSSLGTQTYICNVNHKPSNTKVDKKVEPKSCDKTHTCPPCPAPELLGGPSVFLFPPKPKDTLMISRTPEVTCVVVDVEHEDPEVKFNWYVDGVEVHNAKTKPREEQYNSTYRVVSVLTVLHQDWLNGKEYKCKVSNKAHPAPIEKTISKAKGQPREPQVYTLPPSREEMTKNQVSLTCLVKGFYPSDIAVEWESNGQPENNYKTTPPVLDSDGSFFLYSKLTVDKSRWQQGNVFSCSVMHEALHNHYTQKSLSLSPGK
light: DIVMTQSPATLSLSPGERATLSCRSSKSLQNVNGNTYLYWFQQKPGQSPQLLIYRMSNLNSGVPDRFSGSGSGTEFTLTISSLEPEDFAVYYCMQHLEYPITFGAGTKLEIKRTVAAPSVFIFPPSDEQLKSGTASVVCLLNNFYPREAKVQWKVDNALQSGNSQESVTEQDSKDSTYSLSSTLTLSKADYEKHKVYACEVTHQGLSSPVTKSFNRGEC
notes: as for B2
As to B4, the “Fold vs WT IgG1” value is 5.17 fold in assay [1] and 4.64 fold in assay [2]. In addition, the dissociation constant (Kd) in [1] worked out at 0.284 µM; in assay [2], 0.185 µM. The “Fold vs WT IgG1 (off-rate)” value came out at 1.11 fold in assay [9] and 0.42 fold in [3]. Also, the binding result in assay [5] and in [6] was “no binding” each time.

The values above are taken from patent US20130315910A1 (Xencor, published 2013).
